Data reported in the supplement of paper PMC10567573.

B1: USP39 (parent)
chain: FQGSMRIFTKKLPHPDLPAEEKEQ
B2: FBXO3 (parent)
chain: HDPLWRRHCKKYWLISEEEKTQKN

Variants of: B1
Experiment: protein stability index of a GFP-peptide fusion (GPS, HEK-293T) (PSI 1-6); higher = more stable
Conditions: c terminus: a fixed tail appended
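Further: lentivirally expressed fusions sorted by FACS into six bins by GFP to DsRed ratio, PSI derived from sequencing read proportions per bin multiplied by bin number.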

| Variant | protein stability index |
| --- | --- |
| E20G | 1.59 |
| M5R | 1.89 |
| K22N | 2.09 |
| K22C | 1.69 |
| K22E | 2.11 |
| A19T | 1.68 |
| A19F | 1.81 |
| F1M | 4.19 |
| F1Q | 4.89 |
| T9F | 1.89 |
| D16V | 1.99 |
| D16Q | 2.19 |
| R6I | 2.12 |
| R6V | 1.82 |
| K10S | 2.44 |
| P18K | 2.01 |
| P18W | 2.1 |

| Variant | protein stability index |
| --- | --- |
| P18M | 2.06 |
| P13T | 1.68 |
| P13W | 3.08 |
| P13H | 2.4 |
| P15A | 1.92 |
| P15D | 1.73 |
| G3H | 2.54 |
| G3V | 2.01 |
| G3F | 1.68 |
| H14F | 1.92 |
| Q24V | 1.52 |
| Q24F | 1.87 |
| E23I | 1.57 |
| E23L | 1.69 |
| Q2T | 2.2 |
| Q2R | 3.89 |
| L17P | 1.96 |

Variants of: B2
Experiment: as above
Conditions: c terminus: a fixed tail appended

| Variant | protein stability index |
| --- | --- |
| L4H | 3.45 |
| L4G | 3.75 |
| L4A | 2.92 |
| L4C | 3.51 |
| L4P | 3.73 |
| L4N | 3.52 |
| L4T | 4.35 |
| L4Y | 3.45 |
| L4F | 3.52 |
| L4Q | 3.88 |
| L4D | 4.6 |
| L4R | 2.33 |
| L4V | 3.32 |
| L4K | 2.95 |
| L4E | 2.9 |
| L4W | 3.63 |
| L4M | 3.26 |
| L4I | 2.93 |
| L4S | 3.87 |
| R6T | 3.43 |
| R6M | 3.58 |
| R6E | 4.24 |
| R6W | 2.46 |

| Variant | protein stability index |
| --- | --- |
| R6L | 2.89 |
| R6I | 2.58 |
| R6C | 3.35 |
| R6D | 4.04 |
| R6G | 3.6 |
| R6F | 2.84 |
| R6A | 2.99 |
| R6N | 3.85 |
| R6V | 2.98 |
| R6Q | 3.54 |
| R6K | 3.32 |
| R6H | 3.51 |
| R6Y | 2.7 |
| R6S | 3.69 |
| R6P | 1.82 |
| P3V | 3.84 |
| P3N | 3.49 |
| P3Y | 2.75 |
| P3M | 3.33 |
| P3C | 3.02 |
| P3H | 2.97 |
| P3Q | 3.5 |
| P3I | 3.08 |

| Variant | protein stability index |
| --- | --- |
| P3L | 3.12 |
| P3K | 3.03 |
| P3S | 3.38 |
| P3A | 3.58 |
| P3D | 3.33 |
| P3E | 3.45 |
| P3F | 2.41 |
| P3T | 3.84 |
| P3W | 2.44 |
| P3R | 2.91 |
| P3G | 3.1 |
| D2P | 3.13 |
| D2W | 1.97 |
| D2F | 2.33 |
| D2H | 2.18 |
| D2G | 1.62 |
| D2N | 2.78 |
| D2A | 2.58 |
| D2E | 2.62 |
| D2Y | 2.56 |
| D2V | 1.97 |
| D2L | 2.24 |
| D2I | 2.25 |

| Variant | protein stability index |
| --- | --- |
| D2T | 1.87 |
| D2K | 2.58 |
| D2M | 2.63 |
| D2Q | 2.91 |
| D2S | 1.81 |
| D2R | 2.86 |
| D2C | 2.26 |
| R7A | 3.39 |
| R7I | 3.14 |
| R7N | 3.46 |
| R7W | 2.68 |
| R7D | 3.8 |
| R7L | 3.14 |
| R7H | 3.02 |
| R7M | 2.86 |
| R7P | 4.42 |
| R7Y | 2 |
| R7Q | 3.54 |
| R7K | 3.22 |
| R7F | 2.21 |
| R7C | 2.95 |
| R7T | 3.53 |
| R7G | 4.02 |

| Variant | protein stability index |
| --- | --- |
| R7E | 3.31 |
| R7S | 3.46 |
| R7V | 2.71 |
| W5M | 4.39 |
| W5C | 3.77 |
| W5G | 3.96 |
| W5V | 3.81 |
| W5E | 4.07 |
| W5A | 4.33 |
| W5R | 3.42 |
| W5P | 3.78 |
| W5Q | 4.25 |
| W5K | 3.62 |
| W5L | 4.35 |
| W5H | 3.94 |
| W5Y | 4.71 |
| W5S | 4.08 |
| W5I | 3.99 |
| W5N | 3.89 |
| W5T | 4.76 |
| W5D | 4.18 |
| W5F | 4.56 |
| H1W | 2.15 |

| Variant | protein stability index |
| --- | --- |
| H1G | 3.29 |
| H1D | 4.12 |
| H1K | 3.21 |
| H1E | 3.84 |
| H1R | 2.8 |
| H1C | 3.53 |
| H1L | 3.85 |
| H1N | 3.38 |
| H1V | 3.38 |
| H1S | 3.62 |
| H1P | 3.74 |
| H1T | 3.66 |
| H1Y | 2.12 |
| H1I | 2.06 |
| H1Q | 3.13 |
| H1F | 2.34 |
| H1A | 3.78 |
| H1M | 3.32 |
